# Assay results taken from publication PMC8826744 (Microbiology Spectrum, 2022).
# B1: farletuzumab-IgG1 (antibody, V domains shown)
# VH: EVQLVESGGGVVQPGRSLRLSCSASGFTFSGYGLSWVRQAPGKGLEWVAMISSGGSYTYYADSVKGRFAISRDNAKNTLFLQMDSLRPEDTGVYFCARHGDDPAWFAYWGQGTPVTVSS
# VL: DIQLTQSPSSLSASVGDRVTITCSVSSSISSNNLHWYQQKPGKAPKPWIYGTSNLASGVPSRFSGSGSGTDYTFTISSLQPEDIATYYCQQWSSYPYMYTFGQGTKVEIK
# notes: IgG1; source: CHO-S, transfected, purified (protein A)
# B2: farletuzumab-FuG1 (antibody, V domains shown)
# VH: B1 VH
# VL: B1 VL
# notes: also called farletuzumab-FuGi
# Biological target: T1, IgG4-Fc tagged rFOLR1 (Homo sapiens (assumed), UniProt P15328)
# T1 construct: also called recombinant IgG4-Fc FOLR1; folate receptor alpha-1; source: CHO-S, transfected, purified (protein A)
# Experiment: ELISA; IgG4-Fc tagged rFOLR1 (2 ug/mL) coated on 96-well plates overnight; antibodies 50 nM to 0.048 nM, 1 h at 37 C; detected with HRP anti-human IgG1
# Conditions: both partners purified
row,Binder,binding result
1,B1,binds
2,B2,binds
